These results are taken from the Human Domainome abundance scans (Beltran et al. 2025).

To fix the notation:
B1: Transcriptional regulator ERG, residues 117 to 197; numbered along this chain, P11308 (parent)
chain: NMTTNERRVIVPADPTLWSTDHVRQWLEWAVKEYGLPDVNILLFQNIDGKELCKMTKDDFQRLTPSYNADILLSHLHYLRE

± gives the uncertainty stated by the source.

The variants in this data set derive from B1. As to the kind of experiment: abundance fitness (aPCA) (normalised: wild type 0, dead -1); higher = more abundant; growth selection in yeast, the domain comes from the species named. The following applies: Homo sapiens.
With NMTTNERRVIVPADPTLWSTDHVRQWLEWAVKEYGLPDVAILLFQNIDGKELCKMTKDDFQRLTPSYNADILLSHLHYLRE [N40A], the abundance fitness was -0.201 ± 0.05.
NMTTNERRVIVPADPTLWSTDHVRQWLEWAVKEYGMPDVNILLFQNIDGKELCKMTKDDFQRLTPSYNADILLSHLHYLRE [L36M]: the abundance fitness is -0.038 ± 0.053.
Next, NMTTNERRVIVPADPTLWSTDHVRQWLEWAVKEYGGPDVNILLFQNIDGKELCKMTKDDFQRLTPSYNADILLSHLHYLRE [L36G]: -0.563 ± 0.047.
NMTTNERRVIVPADPTLWSTDHVRQWLEWAVKEYGQPDVNILLFQNIDGKELCKMTKDDFQRLTPSYNADILLSHLHYLRE [L36Q]: the abundance fitness was -0.67 ± 0.12.
Next, NMTTNERRVIVPADPTLWSTDHVRQWLEWAVKEYGYPDVNILLFQNIDGKELCKMTKDDFQRLTPSYNADILLSHLHYLRE [L36Y]: -0.375 ± 0.15; NMTTNERRVIVPADPTLWSTDHVRQWLEWAVKEYGRPDVNILLFQNIDGKELCKMTKDDFQRLTPSYNADILLSHLHYLRE [L36R]: -0.81 ± 0.07.
Consider NMTTNERRVIVPADPTLWSTDHVRQWLEWAVKEYGVPDVNILLFQNIDGKELCKMTKDDFQRLTPSYNADILLSHLHYLRE [L36V], for which the abundance fitness is -0.225 ± 0.04.
Next, NMTTNERRVIVPADPTLWSTDHVRQWLEWAVKEYGEPDVNILLFQNIDGKELCKMTKDDFQRLTPSYNADILLSHLHYLRE [L36E]: -0.889 ± 0.12; NMTTNERRVIVPADPTLWSTDHVRQWLEWAVKEYGSPDVNILLFQNIDGKELCKMTKDDFQRLTPSYNADILLSHLHYLRE [L36S]: -0.829 ± 0.13; NMTTNERRVIVPADPTLWSTDHVRQWLEWAVKEYGFPDVNILLFQNIDGKELCKMTKDDFQRLTPSYNADILLSHLHYLRE [L36F]: -0.038 ± 0.1.
As to NMTTNERRVIVPADPTLWSTDHVRQWLEWAVKEYGNPDVNILLFQNIDGKELCKMTKDDFQRLTPSYNADILLSHLHYLRE [L36N], the abundance fitness was -0.75 ± 0.16.
In the case of NMTTNERRVIVPADPTLWSTDHVRQWLEWAVKEYGWPDVNILLFQNIDGKELCKMTKDDFQRLTPSYNADILLSHLHYLRE [L36W], the abundance fitness is -0.253 ± 0.047.
For the variant NMTTNERRVIVPADPTLWSTDHVRQWLEWAVKEYGIPDVNILLFQNIDGKELCKMTKDDFQRLTPSYNADILLSHLHYLRE [L36I], the abundance fitness is -0.066 ± 0.089.
Next, NMTTNERRVIVPADPTLWSTDHVRQWLEWAVKEYGTPDVNILLFQNIDGKELCKMTKDDFQRLTPSYNADILLSHLHYLRE [L36T]: -0.357 ± 0.083; NMTTNERRVIVPADPTLWSTDHVRQWLEWAVKEYGPPDVNILLFQNIDGKELCKMTKDDFQRLTPSYNADILLSHLHYLRE [L36P]: -1.08 ± 0.22; NMTTNERRVIVPADPTLWSTDHVRQWLEWAVKEYGLNDVNILLFQNIDGKELCKMTKDDFQRLTPSYNADILLSHLHYLRE [P37N]: 0.072 ± 0.052.
Next, NMTTNERRVIVPADPTLWSTDHVRQWLEWAVKEYGLMDVNILLFQNIDGKELCKMTKDDFQRLTPSYNADILLSHLHYLRE [P37M]: 0.001 ± 0.049; NMTTNERRVIVPADPTLWSTDHVRQWLEWAVKEYGLSDVNILLFQNIDGKELCKMTKDDFQRLTPSYNADILLSHLHYLRE [P37S]: 0.08 ± 0.039.
With NMTTNERRVIVPADPTLWSTDHVRQWLEWAVKEYGLQDVNILLFQNIDGKELCKMTKDDFQRLTPSYNADILLSHLHYLRE [P37Q] the figure was -0.044 ± 0.055; with NMTTNERRVIVPADPTLWSTDHVRQWLEWAVKEYGLTDVNILLFQNIDGKELCKMTKDDFQRLTPSYNADILLSHLHYLRE [P37T], 0.072 ± 0.039; with NMTTNERRVIVPADPTLWSTDHVRQWLEWAVKEYGLGDVNILLFQNIDGKELCKMTKDDFQRLTPSYNADILLSHLHYLRE [P37G], -0.026 ± 0.048.
Consider NMTTNERRVIVPADPTLWSTDHVRQWLEWAVKEYGLVDVNILLFQNIDGKELCKMTKDDFQRLTPSYNADILLSHLHYLRE [P37V], for which the abundance fitness is -0.024 ± 0.044.
As for NMTTNERRVIVPADPTLWSTDHVRQWLEWAVKEYGLLDVNILLFQNIDGKELCKMTKDDFQRLTPSYNADILLSHLHYLRE [P37L], the abundance fitness worked out at 0.001 ± 0.036.
With NMTTNERRVIVPADPTLWSTDHVRQWLEWAVKEYGLKDVNILLFQNIDGKELCKMTKDDFQRLTPSYNADILLSHLHYLRE [P37K] the figure was 0.054 ± 0.054; with NMTTNERRVIVPADPTLWSTDHVRQWLEWAVKEYGLHDVNILLFQNIDGKELCKMTKDDFQRLTPSYNADILLSHLHYLRE [P37H], 0.016 ± 0.054.
With NMTTNERRVIVPADPTLWSTDHVRQWLEWAVKEYGLRDVNILLFQNIDGKELCKMTKDDFQRLTPSYNADILLSHLHYLRE [P37R] the figure was 0.014 ± 0.039.
On to NMTTNERRVIVPADPTLWSTDHVRQWLEWAVKEYGLCDVNILLFQNIDGKELCKMTKDDFQRLTPSYNADILLSHLHYLRE [P37C], for which the abundance fitness was 0.017 ± 0.06.
Consider NMTTNERRVIVPADPTLWSTDHVRQWLEWAVKEYGLWDVNILLFQNIDGKELCKMTKDDFQRLTPSYNADILLSHLHYLRE [P37W], for which the abundance fitness was -0.123 ± 0.061.
Turning to NMTTNERRVIVPADPTLWSTDHVRQWLEWAVKEYGLIDVNILLFQNIDGKELCKMTKDDFQRLTPSYNADILLSHLHYLRE [P37I], the abundance fitness was 0.106 ± 0.052.
Next, NMTTNERRVIVPADPTLWSTDHVRQWLEWAVKEYGLDDVNILLFQNIDGKELCKMTKDDFQRLTPSYNADILLSHLHYLRE [P37D]: -0.027 ± 0.069; NMTTNERRVIVPADPTLWSTDHVRQWLEWAVKEYGLYDVNILLFQNIDGKELCKMTKDDFQRLTPSYNADILLSHLHYLRE [P37Y]: -0.018 ± 0.053.
With NMTTNERRVIVPADPTLWSTDHVRQWLEWAVKEYGLADVNILLFQNIDGKELCKMTKDDFQRLTPSYNADILLSHLHYLRE [P37A] the figure was 0.022 ± 0.048; with NMTTNERRVIVPADPTLWSTDHVRQWLEWAVKEYGLEDVNILLFQNIDGKELCKMTKDDFQRLTPSYNADILLSHLHYLRE [P37E], 0.018 ± 0.06.
Regarding NMTTNERRVIVPADPTLWSTDHVRQWLEWAVKEYGLFDVNILLFQNIDGKELCKMTKDDFQRLTPSYNADILLSHLHYLRE [P37F], the abundance fitness is -0.143 ± 0.049.
